Source: paper PMC10939272, “Structural insights into the octamerization of glycerol dehydrogenase” (PLOS ONE, 2024)

Molecular target: the molecule itself
Experiment: crystal structure; hanging-drop vapor diffusion, 20°C, pH 4.2, with ZnCl2 and NAD+, soaked in glycerol; space group I422, 2.0 Å; octamer by non-crystallographic 2-fold and crystallographic 4-fold symmetry

B1: Escherichia coli glycerol dehydrogenase (GDH), full-length (1-367) (enzyme, E. coli K12 MG1655, UniProt P0A9S5 1-367, looked up)
chain: MDRIIQSPGKYIQGADVINRLGEYLKPLAERWLVVGDKFVLGFAQSTVEKSFKDAGLVVEIAPFGGECSQNEIDRLRGIAETAQCGAILGIGGGKTLDTAKALAHFMGVPVAIAPTIASTDAPCSALSVIYTDEGEFDRYLLLPNNPNMVIVDTKIVAGAPARLLAAGIGDALATWFEARACSRSGATTMAGGKCTQAALALAELCYNTLLEEGEKAMLAAEQHVVTPALERVIEANTYLSGVGFESGGLAAAHAVHNGLTAIPDAHHYYHGEKVAFGTLTQLVLENAPVEEIETVAALSHAVGLPITLAQLDIKEDVPAKMRIVAEAACAEGETIHNMPGGATPDQVYAALLVADQYGQRFLQEWE
notes: glycerol dehydrogenase (GDH; EC 1.1.1.6) of E. coli K12 MG1655, full length, residues 1-367; Homo-octamer; Two protomers (Mol-A, Mol-B) lie in the asymmetric unit and the octamer is formed by crystallographic 4-fold symmetry; Crystallised with Zn2+ and NAD+ and soaked in glycerol; also called E. coli GDH; GDH^NAD∙Gly; source: E. coli BL21 (DE3), purified (Ni-IDA, size-exclusion chromatography)
  stoichiometry N: 8
